Laboratory results from IntAct's records for PubMed 22289178.

B1: Gamma-crystallin D (Homo sapiens), P07320 (parent)
chain: MGKITLYEDRGFQGRHYECSSDHPNLQPYLSRCNSARVDSGCWMLYEQPNYSGLQYFLRRGDYADHQQWMGLSDSVRSCRLIPHSGSHRIRLYEREDYRGQMIEFTEDCSCLQDRFRFNEIHSLNVLEGSWVLYELSNYRGRQYLLMPGDYRRYQDWGATNARVGSLRRVIDFS
partner: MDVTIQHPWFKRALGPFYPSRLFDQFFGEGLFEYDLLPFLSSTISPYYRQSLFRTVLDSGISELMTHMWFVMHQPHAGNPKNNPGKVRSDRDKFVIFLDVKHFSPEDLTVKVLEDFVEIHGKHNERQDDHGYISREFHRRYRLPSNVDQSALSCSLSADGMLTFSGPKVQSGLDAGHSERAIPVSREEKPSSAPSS
B2: Gamma-crystallin D (Homo sapiens), P07320 (parent)
chain: B1 chain
partner: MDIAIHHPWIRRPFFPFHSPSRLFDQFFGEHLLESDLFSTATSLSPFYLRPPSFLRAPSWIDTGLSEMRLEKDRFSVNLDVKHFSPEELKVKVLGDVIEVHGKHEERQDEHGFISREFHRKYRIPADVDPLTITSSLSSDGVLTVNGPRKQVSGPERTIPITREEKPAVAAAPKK
B3: Alpha-crystallin B chain (Mus musculus), P23927 (parent)
chain: B2 partner

Variants of: B1
Conditions: with cryaa_rat Cryaa

Row | Variant | effect of a mutation on the interaction
1 | V76D | increasing interaction
2 | I4F | increasing interaction

Variants of: B2
Conditions: with cryab_mouse Cryab, P23927

Row | Variant | effect of a mutation on the interaction
3 | V76D | increasing interaction
4 | I4F | increasing interaction

Variants of: B3
Conditions: with crgd_human CRYGD, P07320

Row | Variant | effect of a mutation on the interaction
5 | S19D | increasing interaction
6 | S59D | increasing interaction
7 | S45D | increasing interaction
